Assay [1] deals with HLA-B*07 (human). Briefly: UV peptide exchange ELISA; ++++ = yield >75%. In general terms: An ELISA detects its analyte on a solid surface through an enzyme-linked reagent.
The target in assay [2] is HLA-B*07 (human). Briefly: UV peptide exchange ELISA; +++ = yield >50.

Molecule FPNEVSVVL displayed a peptide exchange yield with HLA-B*07 (human) [1] above 75%. LPRGLSPARQL: the peptide exchange yield with HLA-B*07 (human) [2] was in the range of 50 to 75%. The same measure, in the same setting: the value for VPRPTSTVGL was 50 to 75%. In the assay with HLA-B*07 (human) [1], VPRPIFSQLYL registered a peptide exchange yield above 75%. Regarding LPRIPFSTF, in the assay with HLA-B*07 (human) [1], the peptide exchange yield is above 75%.
